# Measurements taken from PMC4216079, “Phenotypic and Enzymatic Comparative Analysis of the KPC Variants, KPC-2 and Its Recently Discovered Variant KPC-15” (PLoS ONE, 2014).
# Tests used:
# KPC-2 = KPC-2 (Klebsiella pneumoniae, UniProt Q9F663); assay: steady-state hydrolysis, diode array spectrophotometer; conditions: 10 mM PBS, pH 7.4, 25°C; 10 nM enzyme
# [1] = test system: CC(C)(O/N=C(\C(=O)N[C@@H]1C(=O)N2C(C(=O)[O-])=C(C[n+]3ccccc3)CS[C@H]12)c1csc(N)n1)C(=O)O; assay: purified protein; conditions: 10 mM PBS, pH 7.4, 25°C, 10 nM enzyme
# [2] = test system: CO/N=C(\C(=O)N[C@@H]1C(=O)N2C(C(=O)O)=C(COC(C)=O)CS[C@H]12)c1csc(N)n1; assay: purified protein; conditions: 10 mM PBS, pH 7.4, 25°C, 10 nM enzyme
# [3] = test system: C[C@@H](O)[C@H]1C(=O)N2C(C(=O)O)=C(SCCN=CN)C[C@H]12; assay: purified protein; conditions: 10 mM PBS, pH 7.4, 25°C, 10 nM enzyme
# [4] = test system: C[C@@H](O)[C@H]1C(=O)N2C(C(=O)O)=C(S[C@@H]3CN[C@H](C(=O)N(C)C)C3)[C@H](C)[C@H]12; assay: purified protein; conditions: 10 mM PBS, pH 7.4, 25°C, 10 nM enzyme
# [5] = test system: Cc1nnc(SCC2=C(C(=O)O)N3C(=O)[C@@H](NC(=O)Cn4cnnn4)[C@H]3SC2)s1; assay: purified protein; conditions: 10 mM PBS, pH 7.4, 25°C, 10 nM enzyme
Compound,Km (KPC-2),Km [1],kcat [1],kcat/Km [1],Km [2],kcat [2],Km [3],kcat [3],kcat/Km [3],Km [4],kcat [4],kcat/Km [4],Km [5],kcat [5],kcat/Km [5]
O=C(Cc1cccs1)N[C@@H]1C(=O)N2C(C(=O)O)=C(/C=C/c3ccc([N+](=O)[O-])cc3[N+](=O)[O-])CS[C@H]12 [nitrocefin],6.5 ± 2.4 µM,–,–,–,–,–,–,–,–,–,–,–,–,–,–
KPC-2 (Klebsiella pneumoniae),–,217 ± 6 µM,0.59 ± 0.83 s⁻¹,2700 ± 560 M⁻¹ s⁻¹,124 ± 6 µM,52 ± 6 s⁻¹,21 ± 2 µM,20 ± 1 s⁻¹,950000 ± 650000 M⁻¹ s⁻¹,16.2 ± 3.1 µM,4.1 ± 0.99 s⁻¹,250000 ± 61000 M⁻¹ s⁻¹,16 ± 1 µM,44 ± 2 s⁻¹,2.8e+06 ± 1e+06 M⁻¹ s⁻¹
